Values of other authors, collected in paper PMC9760969.

Molecular target: CD95L (Homo sapiens) (UniProt P48023)
Chain of UniProt P48023 (P48023 130-281): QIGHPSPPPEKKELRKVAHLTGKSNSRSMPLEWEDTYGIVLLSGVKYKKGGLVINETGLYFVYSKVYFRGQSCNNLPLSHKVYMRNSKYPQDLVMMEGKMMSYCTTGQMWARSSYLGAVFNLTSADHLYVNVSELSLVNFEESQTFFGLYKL

Kd: 1.23 pM
Substance: DR5 (from UniProt O14763)
